Test results as given in paper PMC4995487, “Tyrosine phosphorylation and protein degradation control the transcriptional activity of WRKY involved in benzylisoquinoline alkaloid biosynthesis”.

Biological target: GST-CjWRKY1 WT (Coptis japonica, UniProt A0ZT25 1-185)
Test: EMSA; 0.05 ug/ul poly(dI-dC), 1 mM MgCl2; EMSA: 20 fmol biotin probe, 3 ug protein, 1x LightShift binding buffer, 1 mM MgCl2, 0.5 mM EDTA, 0.05 ug/ul poly(dI-dC), 20 min at 4 C, 5% polyacrylamide gel; pH and salt not given
Conditions: protein: recombinant; tags: N-terminal GST (pGEX-6P-1); label: biotin; blunt

GST-CjWRKY1 WT, sequence (A0ZT25 entry or part of it): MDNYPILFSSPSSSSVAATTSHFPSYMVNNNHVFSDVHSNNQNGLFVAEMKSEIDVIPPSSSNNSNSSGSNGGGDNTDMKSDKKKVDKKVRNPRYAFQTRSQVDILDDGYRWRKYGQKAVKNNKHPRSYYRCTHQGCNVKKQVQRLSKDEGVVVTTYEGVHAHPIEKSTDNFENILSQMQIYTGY

B1: 3x W-box probe (CYP80B2 promoter) (dsDNA)
DNA 1: CTGCTGACTAGCTGACTAGCTGACTAGATGG
DNA 2: CCATCTAGTCAGCTAGTCAGCTAGTCAGCAG
Q: Does B1 bind?
A: binds
